Results taken from publication PMC2756588.

T1: Sla1-3, P32790
T1 sequence (P32790 344-424, looked up): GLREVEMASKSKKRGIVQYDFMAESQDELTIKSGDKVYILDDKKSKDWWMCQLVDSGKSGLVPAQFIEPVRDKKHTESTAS

T2: Boi2, P39969
T2 sequence (P39969 32-116, looked up): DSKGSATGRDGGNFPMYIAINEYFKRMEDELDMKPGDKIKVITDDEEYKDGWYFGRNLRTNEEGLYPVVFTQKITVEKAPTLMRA

T3: Bzz1-2, P38822
T3 sequence (P38822 568-633, looked up): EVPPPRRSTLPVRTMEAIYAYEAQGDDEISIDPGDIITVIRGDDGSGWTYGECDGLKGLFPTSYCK

T4: Myo5, Q04439
T4 sequence (Q04439 1072-1160, looked up): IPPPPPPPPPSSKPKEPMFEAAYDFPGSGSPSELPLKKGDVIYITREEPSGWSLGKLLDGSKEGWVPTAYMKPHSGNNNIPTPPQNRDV

T5: Bud14, P27637
T5 sequence (P27637 247-328, looked up): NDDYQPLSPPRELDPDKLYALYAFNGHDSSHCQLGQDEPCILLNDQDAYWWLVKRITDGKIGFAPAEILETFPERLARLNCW

T6: Pin3, Q06449
T6 sequence (Q06449 53-122, looked up): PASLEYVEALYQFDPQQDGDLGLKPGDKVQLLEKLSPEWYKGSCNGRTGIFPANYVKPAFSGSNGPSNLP

T7: Hof1, Q05080
T7 sequence (Q05080 590-669, looked up): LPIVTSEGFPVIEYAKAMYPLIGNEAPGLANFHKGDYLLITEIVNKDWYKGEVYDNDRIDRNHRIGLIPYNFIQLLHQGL

T8: Bbc1, P47068
T8 sequence (P47068 1-78, looked up): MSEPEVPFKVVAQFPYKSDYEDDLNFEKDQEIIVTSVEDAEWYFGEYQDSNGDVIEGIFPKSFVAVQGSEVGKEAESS

T9: Fus1, P11710
T9 sequence (P11710 432-512, looked up): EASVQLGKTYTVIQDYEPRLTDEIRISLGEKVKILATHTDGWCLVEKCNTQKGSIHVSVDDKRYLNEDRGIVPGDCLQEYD

T10: Sla1-2, P32790
T10 sequence (P32790 60-140, looked up): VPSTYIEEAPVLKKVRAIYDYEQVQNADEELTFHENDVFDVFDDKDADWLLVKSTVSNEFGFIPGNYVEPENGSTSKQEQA

T11: Boi1, P38041
T11 sequence (P38041 1-86, looked up): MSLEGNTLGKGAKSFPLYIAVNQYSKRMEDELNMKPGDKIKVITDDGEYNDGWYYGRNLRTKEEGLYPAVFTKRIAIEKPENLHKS

T12: Cdc25, P04821
T12 sequence (P04821 50-136, looked up): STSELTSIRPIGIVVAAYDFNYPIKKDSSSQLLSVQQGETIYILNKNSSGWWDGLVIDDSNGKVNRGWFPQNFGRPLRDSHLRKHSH

T13: Abp1, P15891
T13 sequence (P15891 535-592, looked up): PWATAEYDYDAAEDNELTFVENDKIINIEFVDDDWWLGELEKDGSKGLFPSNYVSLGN

T14: Cyk3, Q07533
T14 sequence (Q07533 1-83, looked up): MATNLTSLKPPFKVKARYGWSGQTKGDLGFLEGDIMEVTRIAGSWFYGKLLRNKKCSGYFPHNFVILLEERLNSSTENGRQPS

T15: Hse1, P38753
T15 sequence (P38753 208-285, looked up): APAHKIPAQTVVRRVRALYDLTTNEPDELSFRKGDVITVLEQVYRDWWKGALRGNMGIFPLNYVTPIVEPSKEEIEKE

T16: Lsb3, P43603
T16 sequence (P43603 385-451, looked up): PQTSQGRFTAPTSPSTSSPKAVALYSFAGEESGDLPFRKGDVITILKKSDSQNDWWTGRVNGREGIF

T17: Bzz1-1, P38822
T17 sequence (P38822 478-572, looked up): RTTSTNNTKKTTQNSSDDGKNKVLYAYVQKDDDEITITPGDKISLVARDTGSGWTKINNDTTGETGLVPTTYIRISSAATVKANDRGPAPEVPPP

T18: Lsb4, P32793
T18 sequence (P32793 402-468, looked up): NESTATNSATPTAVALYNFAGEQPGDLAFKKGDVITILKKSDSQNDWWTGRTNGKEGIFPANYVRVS

T19: Nbp2, Q12163
T19 sequence (Q12163 103-180, looked up): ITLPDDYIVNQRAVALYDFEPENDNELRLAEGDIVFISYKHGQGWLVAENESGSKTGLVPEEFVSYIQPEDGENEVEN

T20: Lsb1, P53281
T20 sequence (P53281 45-122, looked up): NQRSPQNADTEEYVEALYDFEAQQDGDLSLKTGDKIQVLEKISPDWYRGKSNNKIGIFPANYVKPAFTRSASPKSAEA

T21: Pex13, P80667
T21 sequence (P80667 295-386, looked up): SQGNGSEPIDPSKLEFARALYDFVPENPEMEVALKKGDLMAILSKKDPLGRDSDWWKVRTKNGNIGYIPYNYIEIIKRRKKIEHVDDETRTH


The binders below were run against T1, Sla1-3, P32790 (assay: SPOT array). Settings: median of control spots 5475.

SPOT intensity | Binder
35 | MKRSRPSRSIPYTTP
58 | GQYRRTIVIPRRFFT
8 | KKIRLIFTYPSTVGR
36 | RSKRLFPVRPMATAH

These binders were tested against Rvs167, P39743 (assay: SPOT array). Settings: median of control spots 2707.
Rvs167, P39743, sequence (P39743 419-482): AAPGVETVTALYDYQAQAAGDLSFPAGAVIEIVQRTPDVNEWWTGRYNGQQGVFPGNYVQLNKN

SPOT intensity | Binder
6 | MKRSRPSRSIPYTTP
0 | GQYRRTIVIPRRFFT
0 | KKIRLIFTYPSTVGR
9 | RSKRLFPVRPMATAH

The binders below were run against Bem1-2, P29366 (assay: SPOT array). Settings: median of control spots 4347.
Bem1-2, P29366, sequence (P29366 139-227): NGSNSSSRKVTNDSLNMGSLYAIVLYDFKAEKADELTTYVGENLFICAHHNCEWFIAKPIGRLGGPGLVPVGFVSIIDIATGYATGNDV

SPOT intensity | Binder
39 | MKRSRPSRSIPYTTP
17 | GQYRRTIVIPRRFFT
0 | KKIRLIFTYPSTVGR
14 | RSKRLFPVRPMATAH

Each binder was assayed against Sho1, P40073 (assay: SPOT array). Settings: median of control spots 1148.
Sho1, P40073, sequence (P40073 287-367): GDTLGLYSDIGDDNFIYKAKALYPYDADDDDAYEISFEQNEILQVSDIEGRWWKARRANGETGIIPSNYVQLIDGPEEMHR

SPOT intensity | Binder
54 | MKRSRPSRSIPYTTP
124 | GQYRRTIVIPRRFFT
253 | KKIRLIFTYPSTVGR
90 | RSKRLFPVRPMATAH

The binders below were run against T2, Boi2, P39969 (assay: SPOT array). Settings: median of control spots 1161.

SPOT intensity | Binder
2 | MKRSRPSRSIPYTTP
6 | GQYRRTIVIPRRFFT
13 | KKIRLIFTYPSTVGR
0 | RSKRLFPVRPMATAH

What follows are binders tested against T3, Bzz1-2, P38822 (assay: SPOT array). Settings: median of control spots 4538.

SPOT intensity | Binder
29 | MKRSRPSRSIPYTTP
0 | GQYRRTIVIPRRFFT
2 | KKIRLIFTYPSTVGR
13 | RSKRLFPVRPMATAH

What follows are binders tested against T4, Myo5, Q04439 (assay: SPOT array). Settings: median of control spots 471.

SPOT intensity | Binder
2 | MKRSRPSRSIPYTTP
2 | GQYRRTIVIPRRFFT
12 | KKIRLIFTYPSTVGR
2 | RSKRLFPVRPMATAH

What follows are binders tested against T5, Bud14, P27637 (assay: SPOT array). Settings: median of control spots 956.

SPOT intensity | Binder
7 | MKRSRPSRSIPYTTP
13 | GQYRRTIVIPRRFFT
9 | KKIRLIFTYPSTVGR
6 | RSKRLFPVRPMATAH

Each binder was assayed against GST (assay: SPOT array). Settings: median of control spots 978.

SPOT intensity | Binder
0 | MKRSRPSRSIPYTTP
5 | GQYRRTIVIPRRFFT
0 | KKIRLIFTYPSTVGR
0 | RSKRLFPVRPMATAH

Each binder was assayed against T6, Pin3, Q06449 (assay: SPOT array). Settings: median of control spots 2171.

SPOT intensity | Binder
34 | MKRSRPSRSIPYTTP
18 | GQYRRTIVIPRRFFT
31 | KKIRLIFTYPSTVGR
12 | RSKRLFPVRPMATAH

What follows are binders tested against T7, Hof1, Q05080 (assay: SPOT array). Settings: median of control spots 4086.

SPOT intensity | Binder
0 | MKRSRPSRSIPYTTP
8 | GQYRRTIVIPRRFFT
0 | KKIRLIFTYPSTVGR
7 | RSKRLFPVRPMATAH

The binders below were run against T8, Bbc1, P47068 (assay: SPOT array). Settings: median of control spots 796.

SPOT intensity | Binder
25 | MKRSRPSRSIPYTTP
258 | GQYRRTIVIPRRFFT
277 | KKIRLIFTYPSTVGR
49 | RSKRLFPVRPMATAH

The binders below were run against T9, Fus1, P11710 (assay: SPOT array). Settings: median of control spots 1200.

SPOT intensity | Binder
5 | MKRSRPSRSIPYTTP
48 | GQYRRTIVIPRRFFT
73 | KKIRLIFTYPSTVGR
17 | RSKRLFPVRPMATAH

These binders were tested against T10, Sla1-2, P32790 (assay: SPOT array). Settings: median of control spots 712.

SPOT intensity | Binder
6 | MKRSRPSRSIPYTTP
8 | GQYRRTIVIPRRFFT
6 | KKIRLIFTYPSTVGR
0 | RSKRLFPVRPMATAH

These binders were tested against T11, Boi1, P38041 (assay: SPOT array). Settings: median of control spots 1162.

SPOT intensity | Binder
3 | MKRSRPSRSIPYTTP
30 | GQYRRTIVIPRRFFT
61 | KKIRLIFTYPSTVGR
0 | RSKRLFPVRPMATAH

These binders were tested against T12, Cdc25, P04821 (assay: SPOT array). Settings: median of control spots 969.

SPOT intensity | Binder
9 | MKRSRPSRSIPYTTP
156 | GQYRRTIVIPRRFFT
163 | KKIRLIFTYPSTVGR
22 | RSKRLFPVRPMATAH

The binders below were run against Myo3, P36006 (assay: SPOT array). Settings: median of control spots 468.

SPOT intensity | Binder
5 | MKRSRPSRSIPYTTP
17 | GQYRRTIVIPRRFFT
41 | KKIRLIFTYPSTVGR
2 | RSKRLFPVRPMATAH

The binders below were run against T13, Abp1, P15891 (assay: SPOT array). Settings: median of control spots 935.

SPOT intensity | Binder
32 | MKRSRPSRSIPYTTP
184 | GQYRRTIVIPRRFFT
196 | KKIRLIFTYPSTVGR
110 | RSKRLFPVRPMATAH

What follows are binders tested against Bem1-1, P29366 (assay: SPOT array). Settings: median of control spots 4282.
Bem1-1, P29366, sequence (P29366 55-141): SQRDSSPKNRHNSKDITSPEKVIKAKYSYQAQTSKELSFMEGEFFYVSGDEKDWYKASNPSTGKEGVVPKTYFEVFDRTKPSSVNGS

SPOT intensity | Binder
0 | MKRSRPSRSIPYTTP
0 | GQYRRTIVIPRRFFT
0 | KKIRLIFTYPSTVGR
0 | RSKRLFPVRPMATAH

These binders were tested against T14, Cyk3, Q07533 (assay: SPOT array). Settings: median of control spots 1451.

SPOT intensity | Binder
1 | MKRSRPSRSIPYTTP
4 | GQYRRTIVIPRRFFT
10 | KKIRLIFTYPSTVGR
0 | RSKRLFPVRPMATAH

What follows are binders tested against T15, Hse1, P38753 (assay: SPOT array). Settings: median of control spots 1727.

SPOT intensity | Binder
14 | MKRSRPSRSIPYTTP
11 | GQYRRTIVIPRRFFT
4 | KKIRLIFTYPSTVGR
12 | RSKRLFPVRPMATAH

The binders below were run against T16, Lsb3, P43603 (assay: SPOT array). Settings: median of control spots 406.

SPOT intensity | Binder
1 | MKRSRPSRSIPYTTP
16 | GQYRRTIVIPRRFFT
20 | KKIRLIFTYPSTVGR
4 | RSKRLFPVRPMATAH

What follows are binders tested against T17, Bzz1-1, P38822 (assay: SPOT array). Settings: median of control spots 4446.

SPOT intensity | Binder
1 | MKRSRPSRSIPYTTP
3 | GQYRRTIVIPRRFFT
2 | KKIRLIFTYPSTVGR
1 | RSKRLFPVRPMATAH

These binders were tested against T18, Lsb4, P32793 (assay: SPOT array). Settings: median of control spots 397.

SPOT intensity | Binder
6 | MKRSRPSRSIPYTTP
28 | GQYRRTIVIPRRFFT
28 | KKIRLIFTYPSTVGR
15 | RSKRLFPVRPMATAH

These binders were tested against T19, Nbp2, Q12163 (assay: SPOT array). Settings: median of control spots 357.

SPOT intensity | Binder
0 | MKRSRPSRSIPYTTP
120 | GQYRRTIVIPRRFFT
258 | KKIRLIFTYPSTVGR
46 | RSKRLFPVRPMATAH

The binders below were run against T20, Lsb1, P53281 (assay: SPOT array). Settings: median of control spots 388.

SPOT intensity | Binder
0 | MKRSRPSRSIPYTTP
19 | GQYRRTIVIPRRFFT
50 | KKIRLIFTYPSTVGR
5 | RSKRLFPVRPMATAH

These binders were tested against T21, Pex13, P80667 (assay: SPOT array). Settings: median of control spots 1341.

SPOT intensity | Binder
10 | MKRSRPSRSIPYTTP
20 | GQYRRTIVIPRRFFT
12 | KKIRLIFTYPSTVGR
11 | RSKRLFPVRPMATAH
